Data on six molecules can be found in US10577424 (BEIJING MABWORKS BIOTECH, dated 2020).

Positions count from the first letter of the chain named. Where two headings read alike, the source gives them in different places.

Test [1] addresses T1, human VISTA (ECD)-his (Sino Biological, Cat #:13482-H08H) (human, UniProt Q9H7M9 33-194).
T1 construct: extracellular domain; Bought protein; also called hVISTA(ECD)-his; recombinant human VISTA(ECD)-his; not shown: his tag
T1 sequence (looked up): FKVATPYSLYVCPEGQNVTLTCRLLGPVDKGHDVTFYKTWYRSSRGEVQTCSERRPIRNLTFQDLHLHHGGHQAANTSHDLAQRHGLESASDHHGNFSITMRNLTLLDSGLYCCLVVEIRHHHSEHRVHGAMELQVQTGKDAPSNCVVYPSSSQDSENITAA
The test is described as follows: ELISA, plate coated with human VISTA (ECD)-his, OD450 [panel A].

For test [2], the target named is T2, monkey VISTA (ECD)-his (Sino Biological, Cat #: 90801-K08H) (cynomolgus monkey).
T2 construct: extracellular domain; Bought protein; also called cynoVISTA(ECD)-his; cynomolgus VISTA (ECD)-his
The test is described as follows: ELISA, plate coated with monkey VISTA (ECD)-his, OD450 [panel B].

The target of test [3] is T1, human VISTA (ECD)-his (Sino Biological, …). The test is described as follows: SPR (BIAcore 8K), human VISTA (ECD)-his coupled to the chip, antibody injected. Here is the method: (§1) They were also tested in SPR assays for their binding affinities to human and monkey VISTA with the BIAcore™ 8K instrument (GE Life Sciences). Briefly, 100-200 response units (RU) of human VISTA (ECD)-his protein (Sino Biological, CN, Cat #:13482-H08H) or monkey VISTA (ECD)-his protein (Sino Biological, CN, Cat #:90801-K08H) were coupled to CM5 biosensor chips (Cat #: BR-1005-30, GE Life Sciences), followed by blocking of un-reacted groups with 1M ethanolamine. Serially diluted antibodies at concentrations ranging from 0.3 µM to 10 µM were injected into the SPR running buffer (HBS-EP buffer, pH7.4, GE Life Sciences; US; Cat #:BR-1006-69) at 30 µL/minute. The binding capacitities were calculated with the RUs of blank controls subtracted. The association rate (k_a) and dissociation rate (k_d) were calculated using the one-to-one Langmuir binding model (BIA Evaluation Software, GE Life Sciences). The equilibrium dissociation constant K_D was calculated as the k_d/k_a ratio.

Test [4] deals with T2, monkey VISTA (ECD)-his (Sino …). The test is described as follows: SPR (BIAcore 8K), monkey VISTA (ECD)-his coupled to the chip, antibody injected. Here is the method: as §1
Test [5] has as its target T3, mouse VISTA expressed on HEK293A cells (mouse, UniProt Q9D659 33-308).
T3 construct: also called HEK293A/mouseVISTA; HEK293A/mouse VISTA
T3 sequence: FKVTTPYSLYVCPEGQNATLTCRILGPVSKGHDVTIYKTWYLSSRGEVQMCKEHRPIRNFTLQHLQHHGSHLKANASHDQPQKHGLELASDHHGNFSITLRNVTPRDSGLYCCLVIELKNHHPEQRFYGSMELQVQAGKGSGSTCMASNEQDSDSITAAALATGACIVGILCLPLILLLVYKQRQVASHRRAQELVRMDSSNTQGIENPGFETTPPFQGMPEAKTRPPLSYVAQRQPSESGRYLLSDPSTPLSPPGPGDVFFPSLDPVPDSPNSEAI
The test is described as follows: FACS on HEK293A/mouse VISTA cells, MFI [panel C].

Test [6] addresses T4, mouse VISTA-his (Sino Biological, Cat #:511550-M08H) (mouse, UniProt Q9D659 33-191).
T4 construct: extracellular domain; Bought protein; also called muVISTA-his; mouse VISTA (ECD)-his; not shown: his tag
T4 sequence (looked up): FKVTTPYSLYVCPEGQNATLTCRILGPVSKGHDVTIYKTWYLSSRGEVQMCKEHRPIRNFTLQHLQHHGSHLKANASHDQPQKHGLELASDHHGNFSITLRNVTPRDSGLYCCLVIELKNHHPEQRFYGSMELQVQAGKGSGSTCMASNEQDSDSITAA
The experiment in a line: ELISA, plate coated with mouse VISTA-his, OD450 [panel C].

In test [7] the target is T1, human VISTA (ECD)-his (Sino Biological, …). The experiment in a line: ELISA, plate coated with human VISTA (ECD)-his, OD450 [panel A]. This is another data set of the same source.
The target of test [8] is T2, monkey VISTA (ECD)-his (Sino …). The experiment in a line: ELISA, plate coated with monkey VISTA (ECD)-his, OD450 [panel B]. This is another data set of the same source.

B1: 161E5-VH2VL2 (antibody, human IgG1, kappa, V domains shown)
VH: QVQLVQSGAEVKKPGASVKVSCKASGYSFTDYYINWVRQAPGQGLEWIARIFPGSGNAYYNEKFKDRATLTVDKSTSTAYMELSSLRSEDTAVYYCARDDSFYGYWYFDVWGQGTTVTVSS
VL: NIMMTQSPATLSVSPGERATLSCKSSQSVLYSSNQKNYLAWYQQKPGQAPRLLIYWASTRESGVPDRFSGSGSGTEFTLTISSLQSEDFAVYYCHQYLSSYTFGGGTKVEIKR
notes: One of the 5 humanized 161E5 antibodies, human IgG1/kappa; also called humanized antibody 161E5-VH2VL2
Consider B1, for which the “EC50 (read off the curve)” value in test [1] and in test [2] was roughly 30 ng/mL in each case.

B2: 161E5-VH0VL0 (antibody, human IgG1, kappa, V domains shown)
VH: B1 VH with I48M, A49G, A68V, L70M, V72R, K74T, A79V
VL: B1 VL with N1E, M3V, V64I, D66A
notes: One of the 5 humanized 161E5 antibodies, human IgG1/kappa; also called humanized antibody 161E5-VH0VL0
For the molecule B2, the “EC50 (read off the curve)” value in test [1] and in test [2] was roughly 30 ng/mL throughout.

B3: 161E5-VH2VL3 (antibody, human IgG1, kappa, V domains shown)
VH: B1 VH
VL: B1 VL with A49S
notes: One of the 5 humanized 161E5 antibodies, human IgG1/kappa; also called humanized antibody 161E5VH2VL3
Take B3: the “EC50 (read off the curve)” value in test [1] and in test [2] was roughly 30 ng/mL each time. The Kd in test [3] is 0.00236 nM; in test [4], 0.0145 nM.

B4: 161E5-VH3VL2 (antibody, human IgG1, kappa, V domains shown)
VH: B1 VH with A40R, Y95F
VL: B1 VL
notes: One of the 5 humanized 161E5 antibodies, human IgG1/kappa; also called humanized antibody 161E5-VH3VL2
B4: the “EC50 (read off the curve)” value in test [1] and in test [2] was roughly 30 ng/mL in each case.

B5: 161E5-VH3VL3 (antibody, human IgG1, kappa, V domains shown)
VH: B1 VH with A40R, Y95F
VL: B1 VL with A49S
notes: One of the 5 humanized 161E5 antibodies, human IgG1/kappa; also called humanized antibody 161E5VH3VL3
In the case of B5, the “EC50 (read off the curve)” value in test [1] and in test [2] was roughly 30 ng/mL each time. Also, the Kd in test [3] was found to be 0.0226 nM; in test [4] it was 0.0399 nM.

B6: chimeric 161E5 antibody (antibody, human IgG1, kappa, V domains shown)
VH: QVQLKQSGAELVRPGASVKLSCKASGYSFTDYYINWVKQRPGQGLEWIARIFPGSGNAYYNEKFKDKATLTVEKSSSAAYMQLSSLTSEDSAVYFCARDDSFYGYWYFDVWGTGTTVTVSS
VL: NIMMTQSPSSLAVSAGEKVTMSCKSSQSVLYSSNQKNYLAWYQQKPGQSPKLLIYWASTRESGVPDRFTGSGSGTDFTLTISSVQAEDLAVYYCHQYLSSYTFGGGTKLEIKR
In the case of B6, the binding result is “no binding (tested: log 4 ng/ml (10000 ng/ml))” in test [5] and “no binding (tested: about log 4.3 ng/ml (about 20000 ng/ml))” in test [6]. In addition, the “EC50 (read off the curve)” value is roughly 20 ng/mL in test [7], roughly 30 ng/mL in test [1], roughly 30 ng/mL in test [8] and roughly 30 ng/mL in test [2]. The same molecule displayed a Kd in test [3] of 0.0139 nM.
